Laboratory results taken from patent US20050112552A1, “Identification and isolation of novel polypeptides having PDZ domains and methods of using same” (AxCell Biosciences Corporation, priority 2000, published 2005).
Where two headings read alike, the source gives them in different places. Where no end group is shown, it is not given here.

What was measured:
PDZP2.2 = PDZP2.2 (Homo sapiens, UniProt Q96QZ7); settings: GST fusion protein
Procedure: (§1) Assays that generate the data, e.g., that of FIGS. 5A and 5B, are conducted in the presence of various compounds that potentially effect the binding of the domains to respective recognition units.
(§2) To determine the ligand preferences of the novel PDZ domain-containing clones described in Section 6.1 the novel PDZ domains derived from PDZP2, PDZP3, KIAA-147, and the three PDZ domains of PSD-95 and Chapsyn were subcloned into glutathione S-transferase (GST) expression vectors and expressed as GST fusion proteins. We examined the peptide ligand binding preferences of all sixteen individual PDZ domains in an enzyme-linked immunosorbent assay-based cross-affinity map experiment. As mentioned above, 45 peptides were chosen from database searches and grouped into seven classes (G-protein coupled receptors, viral proteins, glutamate receptors, ion channels, Frizzled homologs, transporters and various other proteins). We tested the ability of these peptides to bind to the known and novel PDZ domains.
(§3) PCR fragments encoding individual PDZ domains were subcloned into the Sal1 and Notl sites of pGEX-4T-2 (Pharmacia Biotech, Inc.) and fusion proteins were expressed and purified as described by the manufacturer. ELISA based cross-affinity experiments were performed essentially as described by Sparks et al. (1996, Proc. Natl. Acad. Sci. USA 93:1540-1544) with the following modifications. Briefly, microtiter wells were coated with […] of fusion protein in 100 mM NaHCO3, blocked with SuperBlock TBS (Pierce) and washed four times with PBS, 0.05% Tween 20. Specific peptide-streptavidin/alkaline phosphatase complexes were added as above and unbound complexes washed five times with PBS, 0.05% Tween 20. Following addition of PNP substrate (p-nitrophenyl phosphate, Kirkegard & Perry Labs), peptide binding was quantitated after 30 min. at O.D. 405 nm. Relative binding measurements from three independent determinations were assigned to a scale as follows: O.D. units 0−0.5=(−), 0.5−1.0=(+), 1.0−2.0=(++), 2.0−3.0=(+++)>3.0=(++++). Peptide sequences used in cross-affinity experiments correspond to C-terminal segments of the following proteins: protein name (species: H=Human; M=Mouse; R=Rat; B=Bovine; V=Viral Origin, Genbank accession number); β1-adrenoreceptor (H, P18090); Serotonin Receptor (H, P28223); VIP Receptor (H, P32241); CRF Receptor (H, P34998); Orphan Receptor (H, P46089); β-1 Adrenergic Receptor (H, P08588); COM (ADE02, P03267); E6, HPV18 (V, P06463); UL25, HSV11 (V, P10209); GP3, EBV (V, P03200); TAT, HTL1A (V, P03409); UL14, VZVD (V, P09295); NMDA Receptor, NR2B (M, Q01097); NMDA Receptor subunit (H, U08266); mGluR1α (H, U31215); mGluR5a (H, D28538); mGluR (H, L76631); mGluR3 (H, AC002081); AMPA receptor (H, L20814); K^+-Channel, KV 1.4 (H, P22459); K^+-Channel Kir 2.2v (H, U53143); Na^+-Channel (a) (H, P15389); K^+-Channel (Kir) (H, D50582); Transmembrane Receptor (Homolog of frizzled ) (H, U43318); Homolog of frizzled (R, L02529); Homolog of frizzled (M, U43319); Glucose transporter (H, P11166); Excitatory Amino Acid Transporter (H, P43003); FAS Receptor (H, P25445); NGF Receptor (H, P08138); Neuropeptide Y Receptor, type 2 (H, P49146); Somatostatin Receptor, type 2 (H, P30874); CFTR (H, P13569); V-CAM (H, P19320); Ankyrin (H, Q01484); Fanconi anemia group C protein (H , Q00597); Calcium pump (H, P23634); APC protein (H, P25054); BCR, (H, P11274); MPK2 (H, P36507); Colorectal Mutant Cancer Protein (H, P23508); 65 KD Yes-Associated Protein (H, P46937); Neutrophil Cytosol Factor 1 (H, P14598); Neurexin III, (B, L27869); Neurexin II (B, L14855). Protein sequence homology searches were performed using BLAST (Altschul et al., 1990, J. Mol. Biol. 215:403-410).

PDZP3.1 = PDZP3.1 (Homo sapiens, UniProt Q8NI35); settings: GST fusion protein
Procedure: as §1, §2, §3

PDZP2.1 = PDZP2.1 (Homo sapiens, UniProt Q96QZ7, D549G/L550P); settings: GST fusion protein
Procedure: as §1, §2, §3

PDZP3.2 = PDZP3.2 (Homo sapiens, UniProt Q8NI35); settings: GST fusion protein
Procedure: as §1, §2, §3

PDZP2.3 = PDZP2.3 (Homo sapiens, UniProt Q96QZ7); settings: GST fusion protein
Procedure: as §1, §2, §3

[1] = biological target: first PDZ domain of PSD-95 (PSD-95-1) (Homo sapiens, UniProt P78352); settings: for binding to the first PDZ domain of PSD-95: cross-affinity map, no test compound, in words; for PDZ domain-recognition unit interaction, PSD-95-1: GST fusion protein
Procedure: as §1, §2, §3

PDZP2.4 = PDZP2.4 (Homo sapiens, UniProt Q96QZ7); settings: GST fusion protein
Procedure: as §1, §2, §3

[2] = biological target: T1, second PDZ domain of PSD-95 (Homo sapiens, UniProt P78352); parameters: PCR fragments encoding individual PDZ domains were subcloned; made in house; settings: stated as known; cited from earlier work
[3] = biological target: T1, second PDZ domain of PSD-95; settings: cross-affinity map, in words
Excerpt: as §2, §3

[4] = biological target: third PDZ domain of PSD-95 (Homo sapiens, UniProt P78352, D348N); settings: cross-affinity map; in words
Excerpt: as §2, §3

[5] = biological target: third PDZ domain of Chapsyn (Homo sapiens, UniProt Q15700); settings: cross-affinity map; in words
Excerpt: as §2, §3

[6] = biological target: first PDZ domain of Chapsyn (Homo sapiens, UniProt Q15700, V177A); settings: cross-affinity map; in words
Excerpt: as §2, §3

[7] = biological target: second PDZ domain of Chapsyn (Homo sapiens, UniProt Q15700); settings: cross-affinity map; in words
Excerpt: as §2, §3

[8] = biological target: T2, interaction between the first PDZ domain in PSD-95 and the carboxy terminal peptide sequence of Na channel protein (Homo sapiens, UniProt P78352); assay: Competitive inhibition analysis of PDZ domain-peptide ligand interaction; type: binding; settings: GST-PSD-95.1 coated plates, biotinylated Na+ channel peptide (SEQ ID NO:51), various inhibitor concentrations, A405 nm
T2 construct: a GST-PSD-95.1 fusion protein of the first PDZ domain of PSD-95; made in house
Excerpt: FIG. 19 presents a competitive inhibition analysis of the interaction between the first PDZ domain in PSD-95 and the carboxy terminal peptide sequence of Na channel protein. GST fusion protein containing the first PZD domain of PSD-95 was contacted with a recognition unit-peptide complex corresponding to the 12 carboxyl terminal amino acids of Na^+ channel protein (FIG. 5A, SEQ ID NO:51) and various concentrations of 1 of 3 different inhibitor peptide complexes. Binding of the dimer inhibitor peptide in the presence of streptavidin alkaline phosphatase/Biotin-Ser-Gly-Ser-Gly-Pro-Pro-Ser-Pro-Asp-Arg-Asp-Arg-Glu-Ser-Ile-Val-COOH (SEQ ID NO:157) is presented as a solid box. Binding of the recognition unit in the presence of a peptide corresponding to the 5 carboxy terminal residues of the Na^+ channel protein (SEQ ID NO:105) (hatched box), and in the presence of a scrambled version of this 5mer (SEQ ID NO:158) (open box), are also presented. Binding of the biotinylated peptide was quantitated at A405 nm. […]
An inhibition assay essentially as described in Section 5.4 was performed to assess the ability of PDZ ligands to uncouple NOS from the NMDA receptor. […] Particularly, biotinylated peptide and various concentrations of an inhibitor were added to microtiter plates coated with the GST-PSD-95.1 fusion protein and the binding interactions were quantified as described above. […]

[9] = listed as NMDA receptor NR2 subunit

PDZP3.1, sequence (Q8NI35 1433-1519 limits assumed): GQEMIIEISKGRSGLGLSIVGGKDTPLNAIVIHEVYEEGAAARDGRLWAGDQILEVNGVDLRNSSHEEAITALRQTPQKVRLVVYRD
PDZP3.2, sequence (Q8NI35 1530-1614 limits assumed): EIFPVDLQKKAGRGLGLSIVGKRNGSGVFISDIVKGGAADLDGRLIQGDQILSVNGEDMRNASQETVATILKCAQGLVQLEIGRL
PDZP2.4, sequence (Q96QZ7 with tags, fused parts or gaps isoform Q96QZ7-2 limits assumed): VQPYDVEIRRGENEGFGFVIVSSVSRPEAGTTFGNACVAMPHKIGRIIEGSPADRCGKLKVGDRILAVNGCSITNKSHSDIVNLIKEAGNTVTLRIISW
PDZP2.3, sequence (Q96QZ7 837-922 limits assumed): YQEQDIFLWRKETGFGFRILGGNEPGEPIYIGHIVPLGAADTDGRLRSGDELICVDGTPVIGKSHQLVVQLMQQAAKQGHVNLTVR
PDZP2.2, sequence (Q96QZ7 639-720 limits assumed): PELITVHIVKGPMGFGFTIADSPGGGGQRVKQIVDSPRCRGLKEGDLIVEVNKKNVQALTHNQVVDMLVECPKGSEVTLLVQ
PDZP2.1, sequence (Q96QZ7 468-553 D549G/L550P limits assumed): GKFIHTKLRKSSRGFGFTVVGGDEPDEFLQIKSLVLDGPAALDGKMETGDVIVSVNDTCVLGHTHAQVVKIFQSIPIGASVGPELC

SEQ ID NO. 42: biotinylated peptide, 12 carboxy terminal amino acids of NMDA (NR2B), mouse (VYEKLSSIESDV; not fully specified; also: biotinylated, position not given here)
PDZ domain-recognition unit interaction, PDZ2.2 (PDZP2.2; in the presence of Compound A): + (0.5−1.0=(+))
PDZ domain-recognition unit interaction, PDZ2.2 (PDZP2.2; in the presence of Compound B): +++ (2.0−3.0=(+++))
PDZ domain-recognition unit interaction, PDZ2.2 (PDZP2.2; in the presence of Compound C): + (0.5−1.0=(+))
PDZ domain-recognition unit interaction, PDZ3.1 (PDZP3.1; in the presence of Compound A): + (0.5−1.0=(+))
PDZ domain-recognition unit interaction, PDZ3.1 (PDZP3.1; in the presence of Compound B): ++++ (>3.0=(++++))
PDZ domain-recognition unit interaction, PDZ3.1 (PDZP3.1; in the presence of Compound C): ++++ (>3.0=(++++))
PDZ domain-recognition unit interaction, PDZP2.1 (PDZP2.1; in the presence of Compound A): + (0.5−1.0=(+))
PDZ domain-recognition unit interaction, PDZP2.1 (PDZP2.1; in the presence of Compound B): ++++ (>3.0=(++++))
PDZ domain-recognition unit interaction, PDZP2.1 (PDZP2.1; in the presence of Compound C): + (0.5−1.0=(+))
PDZ domain-recognition unit interaction, PDZ3.2 (PDZP3.2; in the presence of Compound A): − (O.D. units 0−0.5=(−))
PDZ domain-recognition unit interaction, PDZ3.2 (PDZP3.2; in the presence of Compound B): − (O.D. units 0−0.5=(−))
PDZ domain-recognition unit interaction, PDZ3.2 (PDZP3.2; in the presence of Compound C): − (O.D. units 0−0.5=(−))
PDZ domain-recognition unit interaction, PDZ2.3 (PDZP2.3; in the presence of Compound A): + (0.5−1.0=(+))
PDZ domain-recognition unit interaction, PDZ2.3 (PDZP2.3; in the presence of Compound B): ++++ (>3.0=(++++))
PDZ domain-recognition unit interaction, PDZ2.3 (PDZP2.3; in the presence of Compound C): + (0.5−1.0=(+))
binding to the first PDZ domain of PSD-95 [1]: positive interaction
binding to the first PDZ domain of PSD-95 [1, 9]: bind to the first and second PDZ domain
PDZ domain-recognition unit interaction, PSD-95-1 ([1]; in the presence of Compound A): − (O.D. units 0−0.5=(−))
PDZ domain-recognition unit interaction, PSD-95-1 ([1]; in the presence of Compound B): +++ (2.0−3.0=(+++))
PDZ domain-recognition unit interaction, PSD-95-1 ([1]; in the presence of Compound C): +++ (2.0−3.0=(+++))
PDZ domain-recognition unit interaction, PDZ2.4 (PDZP2.4; in the presence of Compound A): + (0.5−1.0=(+))
PDZ domain-recognition unit interaction, PDZ2.4 (PDZP2.4; in the presence of Compound B): ++++ (>3.0=(++++))
PDZ domain-recognition unit interaction, PDZ2.4 (PDZP2.4; in the presence of Compound C): + (0.5−1.0=(+))
binding to the second PDZ domain of PSD-95 [2]: binds
binding to the second PDZ domain of PSD-95 [3]: positive interaction
binding to the second PDZ domain of PSD-95 [3, 9]: bind to the first and second PDZ domain
binding to the third PDZ domain of PSD-95 [4]: not the third PDZ domain
binding to the third PDZ domain of Chapsyn [5]: same binding specificities
binding to the first PDZ domain of Chapsyn [6]: same binding specificities
binding to the second PDZ domain of Chapsyn [7]: same binding specificities

AC-Cys-Pro-Pro-Ser-Pro-Asp-Arg-Asp-Arg-Glu-Ser-Ile-Val-COOH (Ac-CPPSPDRDRESIV-OH) [dimer inhibitor]
inhibition of the interaction of the PDZ domain and ligand [8]: able to inhibit

Arg-Glu-Ser-Ile-Val-COOH (RESIV-OH) [5mer containing the carboxy terminal 5 residues of the Na+ channel peptide]
inhibition of the interaction of the PDZ domain and ligand [8]: to a lesser extent
